The record followed here is article doi:10.1101/644955.

In general, stoichiometry N refers to the number of molecules, sites or subunits per partner or assembly.

This test has as its target FLAG-tagged rainbow trout IL-2 (IL-2A), expressed in insect cells (rainbow trout (Oncorhynchus mykiss)). The test can be described thus: SEC. For orientation: SEC sorts molecules by how far they enter the pores of the column.

On to “FLAG-tagged rainbow trout IL-2 (IL-2A), expressed in insect cells (ligand)”, for which the stoichiometry N was 2.
